Columns and labels:
Assay in all cases: cell-based or functional assay
[1] = molecular target: Met receptor on A549 lung carcinoma cells (UniProt P08581)
[2] = molecular target: pro-HGF (single-chain hepatocyte growth factor) (UniProt P14210)
[3] = molecular target: soluble form of hepsin encompassing the entire extracellular domain (Arg45-Leu417) and a C-terminal His8 tag (human) (UniProt P05981)
soluble form of hepsin encompassing the entire extracellular domain (Arg45-Leu417) and a C-terminal His8 tag (human), sequence (P05981 45-162 limits assumed, chain 1 of 2): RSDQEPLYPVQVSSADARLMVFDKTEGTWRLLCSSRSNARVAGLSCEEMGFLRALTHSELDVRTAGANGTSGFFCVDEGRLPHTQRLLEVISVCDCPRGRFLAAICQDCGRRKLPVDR
soluble form of hepsin encompassing the entire extracellular domain (Arg45-Leu417) and a C-terminal His8 tag (human), sequence (P05981 other isoform, or with tags, fused parts or gaps limits assumed, chain 2 of 2): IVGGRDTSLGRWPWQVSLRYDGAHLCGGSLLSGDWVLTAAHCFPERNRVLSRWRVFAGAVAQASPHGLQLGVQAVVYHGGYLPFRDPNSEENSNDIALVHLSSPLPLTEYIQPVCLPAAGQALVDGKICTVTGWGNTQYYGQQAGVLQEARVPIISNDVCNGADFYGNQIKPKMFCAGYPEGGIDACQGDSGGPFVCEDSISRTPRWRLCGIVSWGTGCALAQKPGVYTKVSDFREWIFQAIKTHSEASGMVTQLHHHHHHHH

pro-HGF (single-chain hepatocyte growth factor), sequence (P14210 32-728 limits assumed): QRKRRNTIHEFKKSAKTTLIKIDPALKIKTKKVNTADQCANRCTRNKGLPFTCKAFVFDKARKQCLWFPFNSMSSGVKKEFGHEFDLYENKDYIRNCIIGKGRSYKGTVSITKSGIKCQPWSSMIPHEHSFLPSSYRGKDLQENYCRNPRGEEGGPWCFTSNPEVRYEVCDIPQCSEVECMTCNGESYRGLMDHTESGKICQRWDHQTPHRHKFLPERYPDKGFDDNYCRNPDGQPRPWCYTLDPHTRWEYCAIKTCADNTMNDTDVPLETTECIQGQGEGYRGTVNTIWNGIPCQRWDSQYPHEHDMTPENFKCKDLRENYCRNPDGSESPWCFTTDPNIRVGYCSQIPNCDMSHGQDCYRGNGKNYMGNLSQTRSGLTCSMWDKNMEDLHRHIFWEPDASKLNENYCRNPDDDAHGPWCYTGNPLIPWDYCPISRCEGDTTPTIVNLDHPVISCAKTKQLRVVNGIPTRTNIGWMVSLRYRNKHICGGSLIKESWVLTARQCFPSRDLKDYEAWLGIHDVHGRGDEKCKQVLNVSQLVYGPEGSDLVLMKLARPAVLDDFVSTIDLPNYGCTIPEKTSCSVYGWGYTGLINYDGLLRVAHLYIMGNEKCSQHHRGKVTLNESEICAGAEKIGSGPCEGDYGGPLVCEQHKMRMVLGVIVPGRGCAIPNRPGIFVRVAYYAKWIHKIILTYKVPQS
Met receptor on A549 lung carcinoma cells, sequence (P08581 25-1390 limits assumed): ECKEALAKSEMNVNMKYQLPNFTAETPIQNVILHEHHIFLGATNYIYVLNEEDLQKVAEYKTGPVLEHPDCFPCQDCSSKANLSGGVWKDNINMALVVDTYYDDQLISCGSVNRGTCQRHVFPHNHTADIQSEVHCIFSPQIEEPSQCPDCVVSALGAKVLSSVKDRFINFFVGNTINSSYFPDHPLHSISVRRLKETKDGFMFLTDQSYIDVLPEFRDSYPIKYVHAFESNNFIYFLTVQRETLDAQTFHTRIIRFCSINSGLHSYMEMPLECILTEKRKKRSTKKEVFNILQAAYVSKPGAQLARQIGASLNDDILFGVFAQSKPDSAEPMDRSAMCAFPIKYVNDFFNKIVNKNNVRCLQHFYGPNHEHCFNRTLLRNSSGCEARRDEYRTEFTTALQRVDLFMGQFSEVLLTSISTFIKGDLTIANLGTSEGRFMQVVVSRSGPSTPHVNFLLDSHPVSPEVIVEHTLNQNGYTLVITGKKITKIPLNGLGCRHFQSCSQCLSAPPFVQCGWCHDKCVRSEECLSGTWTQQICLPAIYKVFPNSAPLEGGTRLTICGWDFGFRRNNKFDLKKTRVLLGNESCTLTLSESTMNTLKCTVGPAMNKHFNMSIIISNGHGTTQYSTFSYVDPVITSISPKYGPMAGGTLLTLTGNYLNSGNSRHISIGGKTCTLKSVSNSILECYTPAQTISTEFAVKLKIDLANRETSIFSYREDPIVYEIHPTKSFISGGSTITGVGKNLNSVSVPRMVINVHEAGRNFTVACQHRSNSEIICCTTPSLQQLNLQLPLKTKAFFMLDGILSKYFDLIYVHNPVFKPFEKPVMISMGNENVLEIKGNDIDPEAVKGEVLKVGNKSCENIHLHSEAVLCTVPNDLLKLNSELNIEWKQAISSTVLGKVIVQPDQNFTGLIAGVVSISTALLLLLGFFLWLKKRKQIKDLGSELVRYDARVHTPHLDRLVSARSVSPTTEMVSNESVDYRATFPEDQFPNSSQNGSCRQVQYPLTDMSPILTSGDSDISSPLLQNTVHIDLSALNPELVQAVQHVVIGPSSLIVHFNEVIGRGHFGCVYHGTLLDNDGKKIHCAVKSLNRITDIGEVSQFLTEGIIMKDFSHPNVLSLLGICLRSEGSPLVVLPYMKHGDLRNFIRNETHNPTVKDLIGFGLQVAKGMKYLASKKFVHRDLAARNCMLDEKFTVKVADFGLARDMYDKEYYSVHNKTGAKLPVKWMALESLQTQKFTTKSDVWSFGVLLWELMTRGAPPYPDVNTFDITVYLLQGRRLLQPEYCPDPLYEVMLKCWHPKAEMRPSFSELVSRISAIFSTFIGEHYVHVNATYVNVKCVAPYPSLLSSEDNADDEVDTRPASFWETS

Row | Met phosphorylation in a kinase receptor assay (KIRA) with A549 cells: concentration of maximal activity [1] | percent of unlabelled pro-HGF (0.3 mg/ml) converted into HGF by 40 nM enzyme [2] | Substance | further results
1 | 250 ng/mL |  | HGFHGFA (HGF produced by activation of pro-HGF with HGFA) (from UniProt P14210 32-728; P14210 32-728) (ligand) | 
2 |  | > 95% | HGFA (hepatocyte growth factor activator) comprising residues Val373-Arg407 (from UniProt Q04756 373-407) (enzyme) | 
3 |  |  | soluble form of HAI-1B (sHAI-1B) comprising the entire extracellular domain (from UniProt O43278 36-465) | IC50, inhibition of hepsin enzymatic activity towards S2366 (amidolytic assay) [3]: 21.1 nM
4 |  | > 95% | soluble form of hepsin encompassing the entire extracellular domain (Arg45-Leu417) and a C-terminal His8 tag (from UniProt P05981 45-162; P05981 163-417) (enzyme) | 
5 | 250 ng/mL |  | HGFhepsin (HGF produced by activation of pro-HGF with hepsin) (from UniProt P14210 32-728; P14210 32-728) (ligand) | 
